Among the data in publication PMC8967061, “Mechanism of Borrelia immune evasion by FhbA-related proteins” (PLoS Pathogens, 2022) are Kd values, retold here.

T1: BhFhbA Lys91Ala (Borrelia hermsii YOR, UniProt W5SB08 44-202, Lys91Ala)
T1 construct: FhbA of Borrelia hermsii strain YOR, residues 44-202 as the wild type construct, single alanine mutant; also called #3; source: E. coli BL21 (DE), purified (Ni-NTA, size-exclusion chromatography)
T1 sequence (looked up): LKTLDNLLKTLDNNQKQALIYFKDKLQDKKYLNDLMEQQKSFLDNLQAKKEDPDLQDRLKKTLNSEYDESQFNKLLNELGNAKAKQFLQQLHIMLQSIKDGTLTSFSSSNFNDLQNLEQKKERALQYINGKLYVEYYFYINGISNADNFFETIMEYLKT

T2: BhFhbA Phe85Ala (Borrelia hermsii YOR, UniProt W5SB08 44-202, Phe85Ala)
T2 construct: FhbA of Borrelia hermsii strain YOR, residues 44-202 as the wild type construct, single alanine mutant; also called #1; source: E. coli BL21 (DE), purified (Ni-NTA, size-exclusion chromatography)
T2 sequence (looked up): T1 sequence (looked up) with F42A, A48K

T3: BhFhbA Phe181Ala (Borrelia hermsii YOR, UniProt W5SB08 44-202, Phe181Ala)
T3 construct: FhbA of Borrelia hermsii strain YOR, residues 44-202 as the wild type construct, single alanine mutant; also called #9; source: E. coli BL21 (DE), purified (Ni-NTA, size-exclusion chromatography)
T3 sequence (looked up): T1 sequence (looked up) with A48K, F138A

T4: BhFhbA Asn153Ala (Borrelia hermsii YOR, UniProt W5SB08 44-202, Asn153Ala)
T4 construct: FhbA of Borrelia hermsii strain YOR, residues 44-202 as the wild type construct, single alanine mutant; source: E. coli BL21 (DE), purified (Ni-NTA, size-exclusion chromatography)
T4 sequence (looked up): T1 sequence (looked up) with A48K, N110A

T5: BhFhbA Met137Ala (Borrelia hermsii YOR, UniProt W5SB08 44-202, Met137Ala)
T5 construct: FhbA of Borrelia hermsii strain YOR, residues 44-202 as the wild type construct, single alanine mutant; also called #4; source: E. coli BL21 (DE), purified (Ni-NTA, size-exclusion chromatography)
T5 sequence (looked up): T1 sequence (looked up) with A48K, M94A

T6: BhFhbA Ile171Ala (Borrelia hermsii YOR, UniProt W5SB08 44-202, Ile171Ala)
T6 construct: FhbA of Borrelia hermsii strain YOR, residues 44-202 as the wild type construct, single alanine mutant; source: E. coli BL21 (DE), purified (Ni-NTA, size-exclusion chromatography)
T6 sequence (looked up): T1 sequence (looked up) with A48K, I128A

T7: BhFhbA Asn88Ala (Borrelia hermsii YOR, UniProt W5SB08 44-202, Asn88Ala)
T7 construct: FhbA of Borrelia hermsii strain YOR, residues 44-202 as the wild type construct, single alanine mutant; also called #2; source: E. coli BL21 (DE), purified (Ni-NTA, size-exclusion chromatography)
T7 sequence (looked up): T1 sequence (looked up) with N45A, A48K

T8: BhFhbA Glu198Ala (Borrelia hermsii YOR, UniProt W5SB08 44-202, Glu198Ala)
T8 construct: FhbA of Borrelia hermsii strain YOR, residues 44-202 as the wild type construct, single alanine mutant; also called #10; source: E. coli BL21 (DE), purified (Ni-NTA, size-exclusion chromatography)
T8 sequence (looked up): T1 sequence (looked up) with A48K, E155A

T9: BhFhbA Glu178Ala (Borrelia hermsii YOR, UniProt W5SB08 44-202, Glu178Ala)
T9 construct: FhbA of Borrelia hermsii strain YOR, residues 44-202 as the wild type construct, single alanine mutant; source: E. coli BL21 (DE), purified (Ni-NTA, size-exclusion chromatography)
T9 sequence (looked up): T1 sequence (looked up) with A48K, E135A

B1: Factor H binding protein A (FhbA) from Borrelia hermsii, wild type (domain or fragment)
chain: T1 sequence (looked up) with A48K
notes: FhbA of Borrelia hermsii strain YOR, without its leader peptide, residues 44-202; also called BhFhbA; Wild type BhFhbA; source: E. coli BL21 (DE), purified (Ni-NTA, size-exclusion chromatography)
B2: Factor H domains 19-20 (domain or fragment)
chain: DSTGKCGPPPPIDNGDITSFPLSVYAPASSVEYQCQNLYQLEGNKRITCRNGQWSEPPKCLHPCVISREIMENYNIALRWTAKQKLYSRTGESVEFVCKRGYRLSSRSHTLRTTCWDGKLEYPTCAKR
modifications: RED-tris-NTA dye label (in the MST assays only)
notes: human complement factor H, short consensus repeat domains 19-20, wild type; also called FH19-20; FH19-20 fragment

Conditions in all cases: both partners purified
One test concerns the target T10, Factor H, full length (human, UniProt P08603 19-1231, RED-tris-NTA dye label (in the MST assays only)).
T10 construct: human complement factor H, 20 short consensus repeat domains; In the functional assays FH was that of whole blood or serum; also called FH; full-length FH; source: bought: Comptech (Complement Technologies), TX, USA
In words: MST; full-length FH labelled with RED-tris-NTA dye, FhbA proteins titrated, PBS/0.025% Tween-20, 22 C.

For a further test, the target named is T1, BhFhbA Lys91Ala. The test can be described thus: MST; FH19-20 labelled with RED-tris-NTA dye (300 nM stock, mixed 1:1 with ligand), FhbA proteins titrated, PBS/0.025% Tween-20, 22 C.
In a further test the target is T2, BhFhbA Phe85Ala. Described as above.
The target of a further test is T3, BhFhbA Phe181Ala. The test is described as above.
In another test the target is T4, BhFhbA Asn153Ala. The test is described as above.
Another test deals with T5, BhFhbA Met137Ala. The description is as above.
Another test deals with T6, BhFhbA Ile171Ala. The test is described as above.
The next test concerns the target T7, BhFhbA Asn88Ala. Described as above.
The target of a further test is T8, BhFhbA Glu198Ala. The description is as above.
A further test addresses T9, BhFhbA Glu178Ala. Described as above.
Test [1] addresses B1. The description is as above.

Residue numbers refer to the chain shown, from its start.

For B1, the Kd – broadly, the free concentration of one partner at which half of the binding sites on the other are occupied at equilibrium, for simple one-to-one binding – in the test with Factor H, full length came out at 30 nM.
B2: the Kd in the test with BhFhbA Lys91Ala was determined as 110 nM; in the test with BhFhbA Phe85Ala, 110 nM; with BhFhbA Phe181Ala, 33 nM; with BhFhbA Asn153Ala it was 73 nM; with BhFhbA Met137Ala it was 1000 nM; in the test with BhFhbA Ile171Ala, 380 nM. Besides, the Kd came out at 110 nM with BhFhbA Asn88Ala, 130 nM with BhFhbA Glu198Ala, 100 nM with BhFhbA Glu178Ala and 82 nM in [1].
